From patent publication US20250027060A1 (VIB VZW, published 2025)

Legend:
[1] = target: T1, LTKTG-EGFL (human LTK amino acids 63-420) (human, UniProt P29376 63-420); assay: BLI, biotinylated ALKAL1 on streptavidin biosensors, LTKTG-EGFL in solution 300 nM to 11 nM, 2:1 binding model, component 1
T1 construct: Fc-His6 tag removed by caspase 3; also called LTK (in BLI, SEC-MALLS and ITC)
T1 sequence: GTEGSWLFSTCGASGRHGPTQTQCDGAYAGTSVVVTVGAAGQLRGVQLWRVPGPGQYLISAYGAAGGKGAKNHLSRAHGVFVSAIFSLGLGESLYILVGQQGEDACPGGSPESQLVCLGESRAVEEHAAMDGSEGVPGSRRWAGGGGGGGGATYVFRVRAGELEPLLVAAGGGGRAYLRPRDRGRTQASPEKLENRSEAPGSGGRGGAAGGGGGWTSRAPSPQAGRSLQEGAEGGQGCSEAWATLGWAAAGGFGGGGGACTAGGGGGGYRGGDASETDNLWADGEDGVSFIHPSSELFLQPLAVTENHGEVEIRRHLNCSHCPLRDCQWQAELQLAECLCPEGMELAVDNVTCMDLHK
From the text: (§1) FIGS. 10A and 10B Representative response curves as measure by biolayer-interferometry (BLI) for the interaction of WT ALKAL1 and ALKAL1 mutants (containing charge-reversal mutations of residues involved in site 1) (FIG. 10A) and WT ALKAL2 and ALKAL2 mutants (FIG. 10B) with ALK_TG-EGFL and LTK_TG-EGFL. For WT ALKALs LTK curves were fitted with a 2:1 binding model (red) while for ALK a 1:1 model was used. Start and end concentrations of the 3-fold dilution series used for the WT measurements is shown as an inset while for all mutants a […] dilution series from 6.4 μM-400 nM was used.
(§2) All measurements of binding kinetics and dissociation constants were performed using an Octet Red 96 (Forté Bio) in assay buffer (20 mM HEPES pH 7.4, 150 mM NaCl, 0.02% (w/v) BSA, 0.002% (v/v) Tween 20) at 298K. ALKALs were immobilized to a level of 0.5 nm on streptavidin-coated biosensors (Forté Bio). To verify that no a specific binding was present during the assay, non-functionalized biosensors were used as a control by measuring in parallel all ligand concentrations as well as running buffer. For all mutants a two-fold dilution series from 6.4 μM-400 nM was employed. Data analysis was performed using the Data Analysis software 9.0.0.14 (Forté Bio) and binding curves were exported to Prism8 (Graphpad Software) for plotting of curves.

[2] = target: T1, LTKTG-EGFL (human LTK amino acids …); assay: ITC at 310 K, LTKTG-EGFL (5 µM) titrated with ALKAL1 (56 µM), one-site model
Experimental: (§3) The right panel represents the binding isotherm obtained from the integration of the raw data and fitted to a one-site model. Standard deviations were calculated based on 3 measurements.
(§4) Experiments were performed using a MicroCal PEAQ-ITC instrument at 310K. Proteins used in ITC experiments were expressed in HEK293S cells grown in suspension. As a final purification step all proteins were buffer exchanged to the same HBS buffer via size-exclusion chromatography. Titrations were preceded by an initial injection of 0.5 μL. The injection spacing was optimized per experiment to allow for the signal to get back to a stable baseline. Throughout the titration the sample was stirred at a speed of 750 r.p.m. Data were analyzed using the PEAQ-ITC analysis software (version 1.1.0.1262, Malvern) and fit using a “one set of sites” model.

[3] = target: T2, ALKTG-EGFL (human ALK amino acids 648-1025) (human, UniProt Q9UM73 648-1025, N-linked glycans; EndoH-trimmed (deglycosylated) for crystals and SEC-MALLS); assay: ITC at 310 K, ALKAL1 (25 µM) titrated with ALKTG-EGFL (210 µM), one-site model
T2 construct: The C-terminal Fc-His6 tag was removed by caspase 3; also called ALK (in BLI, SEC-MALLS and ITC)
Experimental: (§5) FIG. 5A and FIG. 5B Isothermal titration calorimetry thermograms for the titration of ALK_TG-EGFL (10 μM) with ALKAL2 (100 μM) (FIG. 5A) and titration of ALKAL1 (25 μM) with ALK_TG-EGFL (210 μM) (FIG. 5B). […] The right panel represents the binding isotherm obtained from the integration of the raw data and fitted to a one-site model. Standard deviations were calculated based on 3 measurements.
as §4

[4] = target: T3, LTKTG (human LTK amino acids 63-379) (human, UniProt P29376 63-379); assay: ITC at 310 K, LTKTG (10 µM) titrated with ALKAL1 (70 µM), one-site model
T3 construct: also called LTK TG supradomain
T3 sequence: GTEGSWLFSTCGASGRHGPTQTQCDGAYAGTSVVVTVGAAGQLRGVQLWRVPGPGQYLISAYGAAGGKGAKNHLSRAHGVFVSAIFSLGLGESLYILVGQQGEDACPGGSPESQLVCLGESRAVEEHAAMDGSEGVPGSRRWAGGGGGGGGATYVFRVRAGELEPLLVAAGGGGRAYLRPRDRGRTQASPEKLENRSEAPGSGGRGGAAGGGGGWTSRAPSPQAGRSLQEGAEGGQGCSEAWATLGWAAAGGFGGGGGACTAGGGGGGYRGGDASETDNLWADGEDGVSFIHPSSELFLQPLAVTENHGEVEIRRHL
Experimental: FIG. 12F, ITC experiments for the titration of LTKTG (10 μM) with ALKAL1 (70 μM) Standard deviations were calculated based on 2 measurements.
as §4

[5] = target: T2, ALKTG-EGFL (human ALK amino acids …); assay: BLI, biotinylated ALKAL1 on streptavidin biosensors, ALKTG-EGFL in solution 6 µM to 400 nM, 1:1 model
From the text: as §1, §2

[6] = target: T1, LTKTG-EGFL (human LTK amino acids …); assay: BLI, biotinylated ALKAL1 on streptavidin biosensors, LTKTG-EGFL in solution 300 nM to 11 nM, 2:1 binding model, component 2
From the text: as §1, §2

[7] = target: T2, ALKTG-EGFL (human ALK amino acids …); assay: ITC, 310 K, one-site model
Experimental: as §5, §4

[8] = target: T4, ALKTG (human ALK amino acids 648-985) (human, UniProt Q9UM73 648-985, N-linked glycans; EndoH-trimmed for crystals and SEC-MALLS); assay: ITC at 310 K, ALKAL1 (33 µM) titrated with ALKTG (330 µM), one-site model
T4 construct: Fc-His6 tag removed by caspase 3; also called ALK TG supradomain
Experimental: FIG. 5E, Titration of ALKAL1 (33 μM) with ALKTG (330 μM) Standard deviations were calculated based on 3 measurements.
as §4

[9] = target: T1, LTKTG-EGFL (human LTK amino acids …); assay: ITC, 310 K, one-site model, 2:1 stoichiometry
Experimental: as §3, §4

[10] = target: T4, ALKTG (human ALK amino acids 648-985); assay: ITC
Experimental: as §4

[11] = target: T1, LTKTG-EGFL (human LTK amino acids …); assay: BLI, biotinylated ALKAL1 R115E on streptavidin biosensors, LTKTG-EGFL in solution, dilution series 6.4 µM-400 nM
From the text: as §1, §2

[12] = target: T1, LTKTG-EGFL (human LTK amino acids …); assay: BLI, biotinylated ALKAL1 F76E on streptavidin biosensors, LTKTG-EGFL in solution, dilution series 6.4 µM-400 nM, biphasic fit, component 1
From the text: as §1, §2

[13] = target: T1, LTKTG-EGFL (human LTK amino acids …); assay: BLI, biotinylated ALKAL1 F76E on streptavidin biosensors, LTKTG-EGFL in solution, dilution series 6.4 µM-400 nM, biphasic fit, component 2
From the text: as §1, §2

[14] = target: T1, LTKTG-EGFL (human LTK amino acids …); assay: ITC at 310 K, LTKTG-EGFL (7.2 µM) titrated with ALKAL1FL (55 µM), one-site model
Experimental: as §3, §4

[15] = target: T3, LTKTG (human LTK amino acids 63-379); assay: ITC at 310 K, LTKTG (10 µM) titrated with ALKAL1FL (40 µM), one-site model
Experimental: FIG. 12H, ITC experiments for the titration of LTKTG (10 μM) with ALKAL1FL (40 μM) Standard deviations were calculated based on 2 measurements.
as §4

[16] = target: T2, ALKTG-EGFL (human ALK amino acids …); assay: BLI, biotinylated ALKAL2 F97E on streptavidin biosensors, ALKTG-EGFL in solution
From the text: as §1, §2

[17] = target: T1, LTKTG-EGFL (human LTK amino acids …); assay: BLI, biotinylated ALKAL2 F97E on streptavidin biosensors, LTKTG-EGFL in solution, dilution series 6.4 µM-400 nM; only component 1 is printed
From the text: as §1, §2

[18] = target: T1, LTKTG-EGFL (human LTK amino acids …); assay: BLI, biotinylated ALKAL2 R136E on streptavidin biosensors, LTKTG-EGFL in solution, dilution series 6.4 µM-400 nM
From the text: as §1, §2

[19] = target: T2, ALKTG-EGFL (human ALK amino acids …); assay: BLI, biotinylated ALKAL2 R136E on streptavidin biosensors, ALKTG-EGFL in solution, dilution series 6.4 µM-400 nM
From the text: as §1, §2

T4 sequence (Q9UM73 648-985 limits assumed): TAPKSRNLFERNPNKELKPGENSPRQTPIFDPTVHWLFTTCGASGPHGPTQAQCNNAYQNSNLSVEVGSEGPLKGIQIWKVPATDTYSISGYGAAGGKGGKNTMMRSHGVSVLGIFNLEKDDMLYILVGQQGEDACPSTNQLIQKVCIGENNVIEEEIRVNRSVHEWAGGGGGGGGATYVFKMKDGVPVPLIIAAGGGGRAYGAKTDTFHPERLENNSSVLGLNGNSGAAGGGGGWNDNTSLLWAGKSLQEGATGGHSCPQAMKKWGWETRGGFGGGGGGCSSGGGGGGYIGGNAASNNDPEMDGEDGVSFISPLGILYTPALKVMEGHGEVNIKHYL
T2 sequence (Q9UM73 648-1025): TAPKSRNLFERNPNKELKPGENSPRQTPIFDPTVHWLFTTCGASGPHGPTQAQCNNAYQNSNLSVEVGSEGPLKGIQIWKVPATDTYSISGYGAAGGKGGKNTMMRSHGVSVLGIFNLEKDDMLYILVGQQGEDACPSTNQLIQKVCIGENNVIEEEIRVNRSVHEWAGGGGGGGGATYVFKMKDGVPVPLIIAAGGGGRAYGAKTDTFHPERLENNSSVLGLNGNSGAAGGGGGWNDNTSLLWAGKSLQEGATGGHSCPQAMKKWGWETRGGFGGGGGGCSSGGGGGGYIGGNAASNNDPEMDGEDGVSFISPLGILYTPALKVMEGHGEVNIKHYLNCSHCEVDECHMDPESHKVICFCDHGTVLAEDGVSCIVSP

B1: ALKAL1 (truncated, residues 57-129) (ligand, human, UniProt Q6UXT8 57-129, looked up)
chain: PSGSRSAEIFPRDSNLKDKFIKHFTGPVTFSPECSKHFHRLYYNTRECSTPAYYKRCARLLTRLAVSPLCSQT
notes: range 57-129; Tag-free in ITC, SEC-MALLS, crystals and Ba/F3 assays; also called ALKAL1^WT; WT ALKAL1
- Kd [1]: 48 nM
- koff [1]: 0.0025 s⁻¹
- kon [1]: 52000 M⁻¹ s⁻¹
- Kd [2]: 55 nM
- ΔG [2]: -10.4 kcal/mol
- ΔH [2]: -29.4 kcal/mol
- ΔG [3]: -8.93 kcal/mol
- ΔH [3]: -7.3 kcal/mol
- Kd [4]: 69 nM
- ΔG [4]: -10.2 kcal/mol
- ΔH [4]: -28.6 kcal/mol
- Kd [5]: 760 nM
- koff [5]: 0.093 s⁻¹
- kon [5]: 130000 M⁻¹ s⁻¹
- Kd [6]: 31 nM
- koff [6]: 0.026 s⁻¹
- kon [6]: 860000 M⁻¹ s⁻¹
- Kd [7]: 600 nM
- Kd [8]: 2500 nM
- ΔG [8]: -7.95 kcal/mol
- ΔH [8]: -5.5 kcal/mol
- Kd [9]: 10 nM
- fold decrease in affinity against ALKTG-EGFL [10]: 4 fold

B2: ALKAL1^R115E (residues 57-129) (ligand, human, UniProt Q6UXT8 57-129, looked up)
chain: PSGSRSAEIFPRDSNLKDKFIKHFTGPVTFSPECSKHFHRLYYNTRECSTPAYYKRCAELLTRLAVSPLCSQT
notes: range 57-129; also called ALKAL1 site 1 mutant R115E
- Kd [11]: 3100 nM
- koff [11]: 0.041 s⁻¹
- kon [11]: 13000 M⁻¹ s⁻¹

B3: ALKAL1^F76E (residues 57-129) (ligand, human, UniProt Q6UXT8 57-129, looked up)
chain: PSGSRSAEIFPRDSNLKDKEIKHFTGPVTFSPECSKHFHRLYYNTRECSTPAYYKRCARLLTRLAVSPLCSQT
notes: range 57-129; Avi-tagged and biotinylated in BLI; used as purified protein in SEC-MALLS and Ba/F3 assays; also called ALKAL1 site 2 mutant
- Kd [12]: 350 nM
- koff [12]: 0.0005 s⁻¹
- kon [12]: 4000 M⁻¹ s⁻¹
- Kd [13]: 1500 nM
- koff [13]: 0.11 s⁻¹
- kon [13]: 60000 M⁻¹ s⁻¹

B4: ALKAL1FL (full-length ALKAL1, residues 28-129) (ligand, human, UniProt Q6UXT8 28-129, looked up)
chain: RPRGRRGARVTDKEPKPLLFLPAAGAGRTPSGSRSAEIFPRDSNLKDKFIKHFTGPVTFSPECSKHFHRLYYNTRECSTPAYYKRCARLLTRLAVSPLCSQT
notes: range 28-129; Sumostar tag removed by caspase 3
- Kd [14]: 11 nM
- ΔG [14]: -11.3 kcal/mol
- ΔH [14]: -31.7 kcal/mol
- Kd [15]: 24 nM
- ΔG [15]: -10.8 kcal/mol
- ΔH [15]: -29.6 kcal/mol

B5: ALKAL2^F97E (residues 78-152) (ligand, human, UniProt Q6UX46 78-152, looked up)
chain: PSPEQRVEIVPRDLRMKDKELKHLTGPLYFSPKCSKHFHRLYHNTRDCTIPAYYKRCARLLTRLAVSPVCMEDKQ
notes: range 78-152; Avi-tagged and biotinylated in BLI; used as purified protein in SEC-MALLS and Ba/F3 assays; also called ALKAL2 site 2 mutant F97E
- Kd [16]: 200 nM
- koff [16]: 0.071 s⁻¹
- kon [16]: 450000 M⁻¹ s⁻¹
- Kd [17]: 8400 nM
- koff [17]: 0.16 s⁻¹
- kon [17]: 53000 M⁻¹ s⁻¹

B6: ALKAL2^R136E (residues 78-152) (ligand, human, UniProt Q6UX46 78-152, looked up)
chain: PSPEQRVEIVPRDLRMKDKFLKHLTGPLYFSPKCSKHFHRLYHNTRDCTIPAYYKRCAELLTRLAVSPVCMEDKQ
notes: range 78-152; also called ALKAL2 site 1 mutant R136E
- Kd [18]: 5900 nM
- koff [18]: 0.12 s⁻¹
- kon [18]: 20000 M⁻¹ s⁻¹
- Kd [19]: 1500 nM
- koff [19]: 0.8 s⁻¹
